Laboratory results: patent US20100068217A1
pKd: −log10 of the molar value.

Tests used:
[1] = target: gp41e-2MAT (E. coli (origin of the scaffold protein, Table 1)); test: kinetics with 2F5 as analyte (Biacore per paragraph 255)
[2] = target: gp41e-1KU2 (Thermus aquaticus (origin of the scaffold protein, Table 1)); test: as above
[3] = target: MPER Cyclized peptide (HIV-1 gp41 MPER-derived, synthetic); test: as above
[4] = target: gp41e-1LGY (Rhizopus niveus (origin of the scaffold protein, Table 1)); test: as above
[5] = target: MPER WT peptide; test: as above
[6] = target: gp41e-1KU2 (Thermus aquaticus (origin of the scaffold protein, Table 1)); test: ELISA, antigen on the plate, 2F5 IgG titrated 2.6e-7 to 1e-1 ug/ul
[7] = target: MPER WT peptide; test: as above

## 2F5 antibody
[1]
  pKd: 8.03
  koff: 0.000679 s⁻¹
  kon: 72600 M⁻¹ s⁻¹
[2]
  pKd: 8.58
  koff: 0.00287 s⁻¹
  kon: 1.09e+06 M⁻¹ s⁻¹
[3]
  pKd: 8.29
  koff: 0.00269 s⁻¹
  kon: 528000 M⁻¹ s⁻¹
[4]
  pKd: 7.97
  koff: 0.00396 s⁻¹
  kon: 369000 M⁻¹ s⁻¹
[5]
  pKd: 8.19
  koff: 0.00356 s⁻¹
  kon: 552000 M⁻¹ s⁻¹
[6]
  EC50 (read off the curve): 0.2 mg/L
[7]
  EC50 (read off the curve): 0.2 mg/L
